First the molecules themselves.
B1: unnamed (parent)
chain 1: HSQGTFTSDYSKYLDSRRAQDFVQWLMNTKRNRNNIA
chain 2: RPQGATVSLWETVQKWREYRRQCQRSLTEDPPPATDLFCNRTFDEYACWPDGEPGSFVNVSCPWYLPWASSVPQGHVYRFCTAEGLWLQKDNSSLPWRDLSECEESKRGERSSPEEQLLFLYIIYTVGYALSFSALVIASAILLGFRHLHCTRNYIHLNLFASFILRALSVFIKDAALKWMYSTAAQQHQWDGLLSYQDSLSCRLVFLLMQYCVAANYYWLLVEGVYLYTLLAFSVLSEQWIFRLYVSIGWGVPLLFVVPWGIVKYLYEDEGCWTRNSNMNYWLIIRLPILFAIGVNFLIFVRVICIVVSKLKANLMCKTDIKCRLAKSTLTLIPLLGTHEVIFAFVMDEHARGTLRFIKLFTELSFTSFQGLMVAILYCFVNNEVQLEFRKSWERWRLEHLHIQRDSSMKPLKCPTSSLSSGATAGSSMYTATCQASCS

The variants in this experiment derive from B1. Briefly: radioligand inhibition binding (competition with 125I-exendin-4(9-39)). To be noted: read off a plot.
In the case of chain 2 V264A, the log10 ratio was -0.25 ΔpKi.
The value for chain 2 L195A was -0.5 ΔpKi; that for chain 2 S196A was 0.1 ΔpKi.
For chain 2 F362A, the log10 ratio was -0.15 ΔpKi.
With chain 2 Q190A, the log10 ratio is 0.1 ΔpKi.
Consider chain 2 R353A, for which the log10 ratio is -0.35 ΔpKi.
Take chain 2 N277A: the log10 ratio is -1.4 ΔpKi.
For chain 2 I263A the value was -0.15 ΔpKi; for chain 2 F358A, -1.1 ΔpKi; for chain 2 L178A, -0.9 ΔpKi.
In the case of chain 2 Y182A, the log10 ratio is -0.3 ΔpKi.
For chain 2 L361A the value was -0.85 ΔpKi.
For chain 2 G354A the value was -0.45 ΔpKi; for chain 2 G262A, 0.1 ΔpKi.
As to chain 2 H189A, the log10 ratio is 0.2 ΔpKi.
With chain 2 Y282A, the log10 ratio was -1.9 ΔpKi.
The value for chain 2 S200A was -0.35 ΔpKi; that for chain 2 S278A was -0.35 ΔpKi; that for chain 2 I359A was 0.05 ΔpKi.
As to chain 2 Y266A, the log10 ratio was 0.1 ΔpKi.
The value for chain 2 K360A was -0.9 ΔpKi; that for chain 2 M280A was -0.8 ΔpKi.
Regarding chain 2 T355A, the log10 ratio was -0.55 ΔpKi.
For chain 2 K179A the value was -0.85 ΔpKi; for chain 2 H351A, -0.4 ΔpKi.
For chain 2 W180A the value was -0.15 ΔpKi.
For chain 2 R357A the value was -0.55 ΔpKi.
Consider chain 2 T363A, for which the log10 ratio was -0.2 ΔpKi.
The value for chain 2 Q187A was -0.65 ΔpKi; that for chain 2 N279A was -1.4 ΔpKi; that for chain 2 S183A was 0.1 ΔpKi.
As to chain 2 Y268A, the log10 ratio is -0.45 ΔpKi.
Turning to chain 2 R276A, the log10 ratio was -1.9 ΔpKi.
Consider chain 2 Q188A, for which the log10 ratio was -0.05 ΔpKi.
For chain 2 E350A the value was -0.85 ΔpKi.
For chain 2 K265A the value was -1.4 ΔpKi; for chain 2 L284A, -0.85 ΔpKi; for chain 2 L194A, -0.15 ΔpKi.
On to chain 2 M181A, for which the log10 ratio was -1.5 ΔpKi.
For the variant chain 2 T184A, the log10 ratio is -0.05 ΔpKi.
With chain 2 G272A, the log10 ratio is 0.15 ΔpKi.
For chain 2 W191A the value was -0.15 ΔpKi; for chain 2 W274A, -0.1 ΔpKi; for chain 2 Y197A, -0.3 ΔpKi.
For chain 2 L356A the value was -0.8 ΔpKi; for chain 2 E364A, -0.5 ΔpKi; for chain 2 T275A, 0.4 ΔpKi.
For chain 2 Q198A the value was 0.15 ΔpKi.
chain 2 N281A: the log10 ratio was -0.5 ΔpKi.
For chain 2 L267A, the log10 ratio is -0.4 ΔpKi.

(Values after paper PMC4912689, “The Extracellular Surface of the GLP-1 Receptor Is a Molecular Trigger for Biased Agonism” (Cell, 2016).)
